B1: full length S. pombe Pik1, wild type [S. pombe] / purified Cdc4 protein [S. pombe] (parent complex)
chain 1: MPSSNSGNELLLRFFESAHFTSQLCVAYLSRYPNNIGIHHFLCEKLATFPYEEIEFFIPQLIHLVLNKDSESVALEEFIISQCEQNTQCALITFWYLQAHMVDLGLQPHSSCFKICKRLYNRIQILVFMSSSSLIQSQQKISENVTPALILSGIMLGGVCVPELLKKAGPIAIAQGRKAPRQDPDESDVDVLRRLSTEPRYSLDVLRSSLNNSIVEQHSEVSLRLKAPELTRTHSYQSSATLSIDEQRRVLRSNYFQQEIQFLFALQDISIRLIIVPRQARLSSLRAELALLNNNLPADVNIPLLRSYHKEVSHKIVRIDPKEATILNSAERVPYLIMVEVLSGELSFEPQSKKNKAKVQKIVSHKNQRKRWFDLTDVDPYTNLQDSTDNDISESESEGGDLSMSPLIKGLVPDTLSLSKSFSSFGNVSLQVPSSHRDTDVVLLSGRHSDSDGNGALKRSKIYASEITARMRAAATMLSQLDAEGSRRPKAETERIKNSIILDMQRLEEERLNEPSIYPVSVDISCAEDLRFGKETQKAERKGDRDDPSAATFQEDWYAKKERIRKSSPYGHYPNWDLVSVIVKTGADLRQETFACQLIYAFQRVWLECKEKVWVRRMKILVTGDNSGLIETITNAISVHSIKKNLTKQLREAELAQGKIAGKNVVTLKDYFIKQFGDPNSSRYRQAQTNFLQSLVAYSIISYLLQLKDRHNGNVLIDSEGHIIHIDFGFLLTNTPGNVGFESAPFKLTADYLEILDDRFDEYRSLMKAAFKSVRKNADQIILLVEVMQNNSTMPCFRAGENTSAQLLQRFQLQLGDKECDDFVDLLIQKANCSVWTRLYDLFQNITNGIY
chain 2: MSTDDSPYKQAFSLFDRHGTGRIPKTSIGDLLRACGQNPTLAEITEIESTLPAEVDMEQFLQVLNRPNGFDMPGDPEEFVKGFQVFDKDATGMIGVGELRYVLTSLGEKLSNEEMDELLKGVPVKDGMVNYHDFVQMILAN

Variants of: B1
Experiment: sandwich ELISA; about 56 µg lysate protein (highest point of 2-fold serial dilution); cells grown in the absence of thiamine; Cdc4-coated wells; parent: 0.27; read off a plot

| response [Absorbance] | Variant |
| --- | --- |
| ~0.027 | chain 1 R838A |
